Reference: US20230140868A1, “COMPOSITIONS AND METHODS FOR TREATING CANCER” (Alpha Beta Holdings, LLC, priority 2020, published 2023)

What was measured:
[1] = system: HCC827 αvβ3-negative human EGFR mutant lung cancer cells; test: HCC827 xenograft, delay of onset of erlotinib resistance; assay type: in vivo, nu/nu mice; details: erlotinib alone, oral, 6.25 mg/kg, six times/week
Method: Briefly, HCC827 (5×10^6 tumor cells in 100 μl of PBS) αvβ3-negative human EGFR mutant lung cancer cells were subcutaneously injected to the right flank of female nu/nu mice (Charles River, 088, 8-10 weeks old). Tumors were measured with calipers twice per week. […] Tumors were placed into liquid nitrogen, OCT compound, or 10% formalin.

[2] = system: αvβ3-expressing human lung cancer cells; test: In vitro ADCC, human NK cells as effector cells (FIG. 10B); assay type: cell-based; details: increasing E:T
Description: (A) In vitro ADCC for primary human monocyte-derived macrophages as effector cells. (B). In vitro ADCC for human NK cells as effector cells. Graphs show effect of increasing effector-to-target ratio (E:T) on death of αvβ3-expressing human lung cancer cells.
This distinction could produce a therapeutic advantage by achieving matching between the antigen (integrin αvβ3) and the types of effector cells that are particularly enriched in αvβ3-expressing tumors, such as macrophages.

human FcγRI = biological target: T1, human FcγRI (Homo sapiens, UniProt P12314); test: Promega ADCC Reporter Bioassay, FcγRI (FIG. 7); assay type: cell-based; details: target cells: integrin avβ3-expressing human pancreatic cancer cells; Raji effector line with NFAT-induced luciferase
T1 construct: host or cells: Raji cell line (so in the source), stably expressing the receptor and NFAT-induced luciferase
T1 sequence (P12314 16-374): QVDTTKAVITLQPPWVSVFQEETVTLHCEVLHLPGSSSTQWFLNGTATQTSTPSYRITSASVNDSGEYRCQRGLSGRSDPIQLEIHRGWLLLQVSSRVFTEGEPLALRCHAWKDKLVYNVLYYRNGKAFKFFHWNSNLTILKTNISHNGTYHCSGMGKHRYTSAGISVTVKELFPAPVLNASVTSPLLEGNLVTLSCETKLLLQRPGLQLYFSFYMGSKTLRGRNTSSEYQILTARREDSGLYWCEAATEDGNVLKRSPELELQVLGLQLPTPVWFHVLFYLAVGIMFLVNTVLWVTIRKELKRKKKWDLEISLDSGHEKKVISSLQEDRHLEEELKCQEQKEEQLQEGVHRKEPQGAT
Method: (§1) Integrin avβ3-expressing human pancreatic cancer cells were utilized as “target cells” to assess the ability of anti-avβ3 antibodies to elicit effector cell activation using a Promega ADCC Reporter Bioassay in which “effector cell” activation is evaluated using a Raji cell line stably expressing the human FcγR I or III and NFAT-induced luciferase. Six antibody dilutions were tested per antibody, with FcγR activation shown as fold change relative to treatment with assay buffer containing no antibody.
(§2) Whereas NK cells utilize only FcγRIII/CD16 to engage antibody Fc regions, macrophages can utilize FcγRI/CD64.

human FcγRIII = test: Promega ADCC Reporter Bioassay, FcγRIII (FIG. 7); assay type: cell-based; details: target cells: integrin avβ3-expressing human pancreatic cancer cells; Raji effector line with NFAT-induced luciferase
Method: as §1, §2

integrin β1 = integrin β1 (Homo sapiens, UniProt P05556); test: In vitro cell adhesion assay on type I collagen (FIG. 8); assay type: cell-based; set-up: endogenous in cells; details: 2-fold dilutions starting at 5 μg/mL
integrin β1, sequence (P05556 21-798): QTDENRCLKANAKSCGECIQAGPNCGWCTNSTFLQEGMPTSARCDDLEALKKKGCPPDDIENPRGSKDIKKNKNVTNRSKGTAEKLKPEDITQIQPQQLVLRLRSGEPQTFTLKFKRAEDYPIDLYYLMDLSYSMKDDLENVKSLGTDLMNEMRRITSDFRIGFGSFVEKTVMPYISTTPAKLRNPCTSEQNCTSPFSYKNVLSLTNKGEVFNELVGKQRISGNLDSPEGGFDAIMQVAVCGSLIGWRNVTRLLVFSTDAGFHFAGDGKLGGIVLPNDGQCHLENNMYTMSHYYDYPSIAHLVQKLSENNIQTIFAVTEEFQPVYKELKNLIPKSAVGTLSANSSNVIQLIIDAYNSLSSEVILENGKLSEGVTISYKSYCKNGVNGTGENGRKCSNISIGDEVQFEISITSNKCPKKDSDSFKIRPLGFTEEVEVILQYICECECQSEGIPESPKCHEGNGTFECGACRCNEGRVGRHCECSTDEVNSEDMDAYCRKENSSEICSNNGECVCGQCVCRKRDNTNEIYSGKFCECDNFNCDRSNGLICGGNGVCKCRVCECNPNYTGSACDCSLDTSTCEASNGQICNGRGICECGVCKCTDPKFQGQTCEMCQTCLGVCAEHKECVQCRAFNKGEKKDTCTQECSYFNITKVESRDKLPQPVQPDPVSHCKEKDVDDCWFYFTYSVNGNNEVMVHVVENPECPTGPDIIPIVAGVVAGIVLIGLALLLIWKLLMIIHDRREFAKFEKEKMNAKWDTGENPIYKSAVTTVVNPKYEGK
Method: (§3) Antibody affinity is evaluated using an in vitro cell adhesion assay. 48 well tissue culture plates were coated with the integrin avβ3 ligand fibrinogen or the integrin β1 ligand type I collagen, and 2000-10000 cells were added in the presence of each antibody for a range of 2-fold dilutions starting at 5 μg/mL in duplicate. Plates were washed at the endpoint and cells attached to the substrate detected using crystal violet.
(§4) Each antibody was tested for its ability to prevent the adhesion of integrin αvβ3-expressing tumor cells to the αvβ3-mediated adhesion to fibrinogen as well as the β1-integrin mediated adhesion to type I collagen.

integrin αvβ3 = integrin αvβ3 (Homo sapiens, UniProt P05106+P06756); test: In vitro cell adhesion assay on fibrinogen (FIG. 8); assay type: cell-based
integrin αvβ3, sequence (P06756 31-889 limits assumed): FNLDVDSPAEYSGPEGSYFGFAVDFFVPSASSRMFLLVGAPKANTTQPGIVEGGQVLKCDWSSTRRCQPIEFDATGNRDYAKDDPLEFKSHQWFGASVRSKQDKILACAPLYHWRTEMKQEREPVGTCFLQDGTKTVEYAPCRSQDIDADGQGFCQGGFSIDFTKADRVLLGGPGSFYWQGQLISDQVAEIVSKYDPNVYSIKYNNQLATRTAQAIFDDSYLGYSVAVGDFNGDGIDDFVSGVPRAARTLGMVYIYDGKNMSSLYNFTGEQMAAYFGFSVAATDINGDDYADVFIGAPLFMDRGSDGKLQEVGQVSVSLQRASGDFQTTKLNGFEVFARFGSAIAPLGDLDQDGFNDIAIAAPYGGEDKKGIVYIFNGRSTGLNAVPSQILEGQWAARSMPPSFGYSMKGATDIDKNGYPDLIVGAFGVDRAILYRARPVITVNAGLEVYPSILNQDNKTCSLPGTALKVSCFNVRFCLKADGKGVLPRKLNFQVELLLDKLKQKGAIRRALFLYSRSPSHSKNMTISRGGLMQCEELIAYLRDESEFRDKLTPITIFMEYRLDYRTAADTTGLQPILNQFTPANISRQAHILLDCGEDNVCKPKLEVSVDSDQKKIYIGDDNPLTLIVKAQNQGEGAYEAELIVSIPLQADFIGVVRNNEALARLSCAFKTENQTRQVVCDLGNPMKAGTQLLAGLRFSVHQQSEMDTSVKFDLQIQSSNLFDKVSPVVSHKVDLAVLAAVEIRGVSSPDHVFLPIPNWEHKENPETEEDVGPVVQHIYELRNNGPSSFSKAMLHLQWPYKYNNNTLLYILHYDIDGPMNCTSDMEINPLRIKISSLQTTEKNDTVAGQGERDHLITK
integrin αvβ3, sequence (P06756 891-1048 limits assumed): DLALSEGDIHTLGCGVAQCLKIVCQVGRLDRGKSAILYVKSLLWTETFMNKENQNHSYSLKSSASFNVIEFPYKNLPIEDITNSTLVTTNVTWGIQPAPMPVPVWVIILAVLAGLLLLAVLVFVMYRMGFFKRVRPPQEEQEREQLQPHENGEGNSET
integrin αvβ3, sequence (P05106 27-788): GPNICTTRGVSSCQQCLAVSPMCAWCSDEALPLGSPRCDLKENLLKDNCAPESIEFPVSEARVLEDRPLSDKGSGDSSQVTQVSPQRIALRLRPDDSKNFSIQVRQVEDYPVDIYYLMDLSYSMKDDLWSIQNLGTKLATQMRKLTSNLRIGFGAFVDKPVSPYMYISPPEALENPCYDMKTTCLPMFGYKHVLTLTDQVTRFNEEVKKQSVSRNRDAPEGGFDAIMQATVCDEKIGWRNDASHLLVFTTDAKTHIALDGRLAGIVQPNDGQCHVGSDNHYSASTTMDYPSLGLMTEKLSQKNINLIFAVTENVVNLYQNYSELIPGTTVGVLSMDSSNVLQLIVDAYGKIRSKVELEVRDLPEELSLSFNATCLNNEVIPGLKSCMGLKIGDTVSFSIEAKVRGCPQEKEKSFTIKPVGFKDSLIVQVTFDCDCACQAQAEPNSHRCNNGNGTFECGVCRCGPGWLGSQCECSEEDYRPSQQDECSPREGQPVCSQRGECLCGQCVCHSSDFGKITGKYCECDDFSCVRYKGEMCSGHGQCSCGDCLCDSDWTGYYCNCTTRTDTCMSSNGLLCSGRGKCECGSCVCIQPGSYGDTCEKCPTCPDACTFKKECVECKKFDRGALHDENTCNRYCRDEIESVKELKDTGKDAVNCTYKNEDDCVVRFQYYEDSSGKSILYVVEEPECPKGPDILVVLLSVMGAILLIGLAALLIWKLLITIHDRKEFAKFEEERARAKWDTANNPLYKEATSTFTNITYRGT
Method: as §3, §4

| FcγRI activation on effector cells (human FcγRI) | αvβ3-mediated adhesion to fibrinogen (integrin αvβ3; 2-fold dilutions starting at 5 μg/mL) | antibody affinity, shown by ability to block αvβ3-dependent cell adhesion (integrin αvβ3; comparison of isotype variants) | Compound | tumor size [1] | ADCC with human NK cells as effector cells [2] | FcγRIII activation on effector cells (human FcγRIII) | β1-integrin mediated adhesion to type I collagen (integrin β1) |
| --- | --- | --- | --- | --- | --- | --- | --- |
| – | – | – | C#Cc1cccc(Nc2ncnc3cc(OCCOC)c(OCCOC)cc23)c1 [erlotinib] | initial reduction in tumor size, this is followed by an eventual tumor re-growth | – | – | – |
| lower levels of engagement | blocked adhesion to fibrinogen | equivalent | hLM609-hIgG1: humanized LM609, hIgG1 isotype (etaracizumab/Vitaxin); heavy chain SEQ ID NO:9, light chain SEQ ID NO:10 [reference compound] | – | engages NK cells | can strongly activate FcγRIII | without disrupting β1-mediated adhesion to collagen |
